Tests used:
Experiment in all cases: SPR
[1] = biological target: fHbp V1.1 Gln193 to Ala (N. meningitidis)
[2] = biological target: fHbp V3.28 Asp (at V1 Glu183) to Ala (N. meningitidis)
[3] = biological target: fHbp V3.28 Ile (at V1 Ile147) to Ala (N. meningitidis)
[4] = biological target: fHbp V2.21 His (at V1 His203) to Ala (N. meningitidis)
[5] = biological target: fHbp V1.1 His184 to Ala (N. meningitidis)
[6] = biological target: fHbp V3.28 Leu (at V1 Phe174) to Ala (N. meningitidis)
[7] = biological target: fHbp V1.1 Phe174 to Ala (N. meningitidis)
[8] = biological target: fHbp V2.21 Val (at V1 Leu171) to Ala (N. meningitidis)
[9] = biological target: fHbp V1.1 Ser182 to Ala (N. meningitidis)
[10] = biological target: fHbp V2.21 Asp (at V1 Asp150) to Ala (N. meningitidis)
[11] = biological target: fHbp V2.21 Leu (at V1 Phe174) to Ala (N. meningitidis)
[12] = biological target: fHbp V3.28 Lys (at V1 Lys268) to Ala (N. meningitidis)
[13] = biological target: fHbp V2.21 Lys (at V1 Lys264) to Ala (N. meningitidis)
[14] = biological target: fHbp 1.P276 (N. meningitidis) (UniProt E6MV22)
[15] = biological target: fHbp V3.28 Phe (at V1 Phe292) to Ala (N. meningitidis)
[16] = biological target: fHbp V3.28 Lys (at V1 Lys92) to Ala (N. meningitidis)
[17] = biological target: fHbp V2.21 Glu (at V1 His313) to Ala (N. meningitidis)
[18] = biological target: fHbp V3.28 Val (at V1 Val149) to Ala (N. meningitidis)
[19] = biological target: fHbp V2.21 His (at V1 Ser288) to Ala (N. meningitidis)
[20] = biological target: fHbp V3.28 Gln (at V1 Lys107) to Ala (N. meningitidis)
[21] = biological target: fHbp V3.28 Ser (at V1 Ser302) to Ala (N. meningitidis)
[22] = biological target: fHbp V2.21 Phe (at V1 Phe292) to Ala (N. meningitidis)
[23] = biological target: fHbp V3.28 Ile (at V1 Ile179) to Ala (N. meningitidis)
[24] = biological target: fHbp V2.21 Ile (at V1 Ile154) to Ala (N. meningitidis)
[25] = biological target: fHbp V2.21 Val (at V1 Ile311) to Ala (N. meningitidis)
[26] = biological target: fHbp 1.P13 (N. meningitidis) (UniProt E6MV22)
[27] = biological target: fHbp V1.1 Asp266 to Ala (N. meningitidis)
[28] = biological target: fHbp V3.28 Leu (at V1 Ile199) to Ala (N. meningitidis)
[29] = biological target: fHbp V3.28 Lys (at V1 Lys264) to Ala (N. meningitidis)
[30] = biological target: fHbp V3.28 His (at V1 His203) to Ala (N. meningitidis)
[31] = biological target: fHbp V1.1 Ser185 to Ala (N. meningitidis)
[32] = biological target: fHbp V3.28 Leu (at V1 Arg195) to Ala (N. meningitidis)
[33] = biological target: fHbp V1.1 Asp181 to Ala (N. meningitidis)
[34] = biological target: fHbp V2.21 Ser (at V1 Ser302) to Ala (N. meningitidis)
[35] = biological target: fHbp V1.1 Lys306 to Ala (N. meningitidis)
[36] = biological target: fHbp V3.28 Lys (at V1 His184) to Ala (N. meningitidis)
[37] = biological target: fHbp 3.P45 (N. meningitidis) (UniProt E6MV22)
[38] = biological target: fHbp V1.1 Asp262 to Ala (N. meningitidis)
[39] = biological target: fHbp V2.21 Val (at V1 Val149) to Ala (N. meningitidis)
[40] = biological target: fHbp 1.P10 (N. meningitidis) (UniProt E6MV22)
[41] = biological target: fHbp V1.1 Lys107 to Ala (N. meningitidis)
[42] = biological target: fHbp V1.1 Asp150 to Ala (N. meningitidis)
[43] = biological target: factor H binding protein (fHbp) V1.1 (N. meningitidis) (UniProt Q9JXV4)
[44] = biological target: fHbp 2.P23 (N. meningitidis) (UniProt E6MV22)
[45] = biological target: fHbp V3.28 Leu (at V1 Ser274) to Ala (N. meningitidis)
[46] = biological target: fHbp V1.1 Phe194 to Ala (N. meningitidis)
[47] = biological target: fHbp V1.1 Gln103 to Ala (N. meningitidis)
[48] = biological target: fHbp V1.1 Phe292 to Ala (N. meningitidis)

Sequence of CFH67, CCP domains 6 and 7 of complement factor H (P08603 321-443): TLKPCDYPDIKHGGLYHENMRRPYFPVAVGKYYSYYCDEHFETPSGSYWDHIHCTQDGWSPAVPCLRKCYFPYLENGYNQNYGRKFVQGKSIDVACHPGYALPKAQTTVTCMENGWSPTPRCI

Substance “CFHR3_(12), the first two (N-terminal) CCP domains of complement factor H-related 3 (from UniProt Q02985 19-330) (domain or fragment)” has a Kd [1] of 158 nM, a Kd [2] of 4.88 nM and a Kd [3] of 17.9 nM. For the same substance, the Kd [4] was 3.81 nM, the Kd [5] was 118 nM and the Kd [6] was 4.78 nM. For the same substance, the Kd [7] was 338 nM, the Kd [8] was 9.81 nM and the Kd [9] was 83.7 nM. The Kd [10] was 3.64 nM, the Kd [11] was 3.44 nM and the Kd [12] was 3.2 nM. It also gave a Kd [13] of 30.2 nM, a Kd [14] of 37.9 nM and a Kd [15] of 2.91 nM. The Kd [16] was 3.39 nM, the Kd [17] was 0.723 nM and the Kd [18] was 8.28 nM. For the same substance, the Kd [19] was 7.63 nM, the Kd [20] was 25.3 nM and the Kd [21] was 7.64 nM. For the same substance, the Kd [22] was 19.4 nM, the Kd [23] was 6.98 nM and the Kd [24] was 14.8 nM. For the same substance, the Kd [25] was 9.68 nM, the Kd [26] was 54.3 nM and the Kd [27] was 82.6 nM. It also gave a Kd [28] of 34.6 nM, a Kd [29] of 29.2 nM and a Kd [30] of 3.47 nM. It also gave a Kd [31] of 78.5 nM, a Kd [32] of 1.76 nM and a Kd [33] of 52.5 nM. The Kd [34] was 6.3 nM, the Kd [35] was 57.7 nM and the Kd [36] was 3.05 nM. The Kd [37] was 0.779 nM, the Kd [38] was 89.2 nM and the Kd [39] was 5.82 nM. For the same substance, the Kd [40] was 119 nM, the Kd [41] was 174 nM and the Kd [42] was 118 nM. It also gave a Kd [43] of 59.4 nM, a Kd [44] of 1.7 nM and a Kd [45] of 20.3 nM. For the same substance, the Kd [46] was 160 nM.

In the case of “CFH67, CCP domains 6 and 7 of complement factor H (from UniProt P08603 321-443) (domain or fragment)”, the Kd [1] is reported as 6.66 nM, the Kd [2] is reported as 5.96 nM and the Kd [3] is reported as 33.6 nM. The Kd [5] was 9.27 nM, the Kd [6] was 4.8 nM and the Kd [7] was 3.21 nM. The Kd [9] was 4.35 nM, the Kd [10] was 3.24 nM and the Kd [11] was 0.157 nM. It also gave a Kd [12] of 2.61 nM, a Kd [13] of 16.7 nM and a Kd [14] of 8.9 nM. For the same substance, the Kd [47] was 7.03 nM, the Kd [15] was 1.97 nM and the Kd [16] was 2.67 nM. It also gave a Kd [18] of 6.81 nM, a Kd [19] of 6.77 nM and a Kd [20] of 46.4 nM. The Kd [21] was 6.18 nM, the Kd [23] was 9.91 nM and the Kd [24] was 25.8 nM. It also gave a Kd [25] of 6.07 nM, a Kd [26] of 10.7 nM and a Kd [48] of 6.8 nM. It also gave a Kd [27] of 3.34 nM, a Kd [28] of 25.8 nM and a Kd [29] of 21.1 nM. It also gave a Kd [30] of 2.33 nM, a Kd [31] of 3.09 nM and a Kd [33] of 4.14 nM. The Kd [34] was 8.39 nM, the Kd [35] was 2.94 nM and the Kd [36] was 2.76 nM. It also gave a Kd [37] of 0.227 nM, a Kd [38] of 6.54 nM and a Kd [39] of 6.9 nM. It also gave a Kd [40] of 15.2 nM, a Kd [41] of 9.59 nM and a Kd [42] of 6.11 nM. It also gave a Kd [44] of 1.99 nM, a Kd [45] of 18.5 nM and a Kd [46] of 5.04 nM.

Reference: publication PMC4273445 (eLife, 2014)
